# Experimental data reported in patent publication US6884600B1, “Protein phosphatase-1 catalytic subunit interactions” (Medical Research Council London, priority 1996, dated 2005).
# B1: M110-(M1-E309): rat aorta M110 fragment, residues 1-309, released from GST-fusion protein with thrombin (protein)
# chain: GSPGMKMADAKQKRNEQLKRWIGSETDLEPPVVKRQKTKVKFDDGAVFLAACSSGDTDEVLKLLHRGADINYANVDGLTALHQACIDDNVDMVKFLVENGANINQPDNEGWIPLHAAASCGYLDIAEFLIGQGAHVGAVNSEGDTPLDIAEEEAMEELLQNEVNRQGVDIEAARKEEERIMLRDARQWLNSGHISDVRHAKSGGTALHVAAAKGYTEVLKLLIQAGYDVNIKDYDGWTPLHAAAHWGKEEACRILVDNLCDMETVNKVGQTAFDVADEDILGYLEELQKKQNLLHSEKRDKKSPLIESTANMEA
# Columns and labels:
# PP1c [1] = target: T1, PP1c (Oryctolagus cuniculus, UniProt P62143); experiment: Phosphorylase phosphatase activity of PP1c; type: biochemical, rabbit
# T1 construct: from tissue; host or cells: rabbit skeletal muscle (PP1G dissociated with LiBr)
# Procedure, shortened: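 Rabbit skeletal muscle PP1c preincubated 15 min at 30 °C with M110 fragments, then assayed on 32P-labelled rabbit phosphorylase a (10 μM). Activity expressed as percentage of that without fragments; 1 U releases […] phosphate per minute.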
# PP1c [2] = target: T1, PP1c; experiment: MLC20 (myosin P-light chain) phosphatase activity of PP1c; type: biochemical
# Procedure, shortened: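 Rabbit skeletal muscle PP1c was preincubated 15 min at 30 °C with M110 fragments before adding 32P-labelled chicken gizzard MLC20 (1 μM). Activity is expressed as % of control incubations without M110 fragments; one unit releases 1 μmol phosphate per min.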
# M21 subunit = experiment: Far Western blotting: interaction with the M21 subunit; type: binding, chicken; details: probe 0.2 μg/ml
# Procedure, shortened: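 Proteins (PP1M, M110 and M21 fragments, MBP or GST fusions) resolved on 12% or 16.5% SDS gels, transferred to nitrocellulose and probed with digoxigenin-labelled M21, M21-(M1-L146) or MBP-M110-(K933-I1004) at 0.2 μg/ml. Parallel gels Coomassie-stained; protein by Bradford.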
# T1 sequence (P62143 whole entry): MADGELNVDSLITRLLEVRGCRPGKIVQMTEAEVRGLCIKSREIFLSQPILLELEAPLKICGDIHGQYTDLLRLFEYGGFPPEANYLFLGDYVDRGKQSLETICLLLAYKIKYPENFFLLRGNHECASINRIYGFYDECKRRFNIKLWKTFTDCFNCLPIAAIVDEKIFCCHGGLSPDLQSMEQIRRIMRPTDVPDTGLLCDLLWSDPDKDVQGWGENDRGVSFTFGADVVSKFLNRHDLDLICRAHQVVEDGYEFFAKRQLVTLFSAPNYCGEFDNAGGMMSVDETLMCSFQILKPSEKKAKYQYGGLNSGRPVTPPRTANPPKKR
# M21 subunit, sequence (as listed by the source): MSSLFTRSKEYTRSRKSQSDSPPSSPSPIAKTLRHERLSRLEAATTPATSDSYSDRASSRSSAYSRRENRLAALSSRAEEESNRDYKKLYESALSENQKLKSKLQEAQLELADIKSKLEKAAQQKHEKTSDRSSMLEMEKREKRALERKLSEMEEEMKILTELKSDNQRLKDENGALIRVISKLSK
molecule,measurement,setting,value
B1,suppression of PP1c activity towards glycogen phosphorylase,PP1c [1],about 80%
same,concentration required to activate the MLC20 phosphatase activity maximally,PP1c [2],0.1 nM
same,increase in PP1c activity towards MLC20 (maximal activation),PP1c [2],about 3 fold
same,recognised by digoxigenin-labelled M21 subunit in Far Western blotting,M21 subunit,not
